Here are results for 10 molecules from patent US20230203156A1, “ANTI-MDR1 ANTIBODIES AND USES THEREOF” (KENJOCKETY BIOTECHNOLOGY, INC., priority 2020, published 2023).

The target of series [1] is T1, human MDR1 extracellular loops 1 and 4 (ECD1, ECD4) (Homo sapiens, UniProt P08183).
T1 construct: FLAG (C); expressed in transfected cells; host or cells: 293T
Description: Epitope mapping with mutant human MDR1 expressed on 293T cells (flow cytometry). The series is classed as binding. The note with it: extracellular loop 1 and extracellular loop 4. The text has this: To determine binding of anti-MDR1 mAbs listed in Table 2 to the two major extracellular loops 1 and 4 of MDR1, various mutations were constructed to alter or substitute these two loops. To examine binding to cynomolgus extracellular loops, the extracellular loop 1 and/or loop 4 of cynomolgus MDR1 were grafted (with a C-terminal FLAG tag) to substitute for the human loops in the human MDR1 using standard techniques. To examine binding dependence on the normal human loops, MDR1 variants with deletion 79-102 and deletion 82-99 in loop 1 were also generated. Loop 1 is also referred to as ECD1. Loop 4 is also referred to as ECD4. These mutant MDR1 efflux pump variants were expressed on 293T cells using standard methods to generate cells that could be used to distinguish binding of various anti-MDR1 mAbs. The different cells were incubated with different anti-MDR1 mAbs for about 1 hour at 4° C. The cells were washed twice with FACS buffer (PBS containing 0.5% BSA). Alexa647 labeled goat anti-human antibody was added as a secondary antibody, and the samples were incubated on ice for another 1 hour. Samples were washed again and analyzed by flow cytometry.
FIG. 9 summarizes the findings from preliminary epitope mapping using mutant human MDR1. […] For example, anti-MDR1 mAb B1.129 requires ECD1 and ECD4 for binding to human MDR1. All of the anti-MDR1 antibodies contact ECD4. […] ECD1 refers to the first extracellular domain of human ABCB1, ECD4 refers to the fourth extracellular domain of human ABCB1 and “others” refers to the remainder of the extracellular domains 2-3 and 5-6 of human ABCB1. Only binding to ECD1 and ECD4 was tested.
A general note: In flow cytometry, cells or beads pass a laser one at a time.

Series [2] has as its system A2780 ADR ovarian carcinoma. The series is described as follows: A2780 ADR drug-resistant ovarian carcinoma model in nude mice. The format is in vivo. The conditions noted are these: for tumor volume, single agent: antibody as a single agent; for tumor volume, in combination with paclitaxel: antibody plus paclitaxel. As for the experimental part: Anti-ABCB1 antibodies B1.129, B1.261, B1.223, B1.225, B1.188, B1.28, and B1.226 were tested for effect on growth of tumors in immunodeficient mice. The following cancer cell lines were used for generating tumor models.
A2780 ADR: The adriamycin-resistant cell line A2780ADR has been developed by exposure of the parent A2780 cell line (Sigma catalogue no. 93112519) to adriamycin. A2780ADR is cross-resistant to melphalan and vinblastine. To retain resistance adriamycin has to be added to the media. The cells grow as a monolayer and in suspension in spinner cultures and are tumorigenic in immune deficient mice. Together with the cisplatin-resistant variant A2780cis these lines only differ in their exposure to a single drug and should facilitate the search for molecular changes responsible for the expression of pleiotropic drug resistance in human ovarian cancer.
Nude mice were implanted with A2780 ADR cells to model ovarian carcinoma. Anti-B1 monoclonal antibodies are efficacious in A2780 ADR ovarian carcinoma model in nude mice.

B1: B1-open.273(A): anti-MDR1 antibody, Mouse; VH SEQ ID NO:155, VL SEQ ID NO:159 (antibody, listed as Mus musculus, V domains shown)
VH: QVQLQQSGPELVKTGASVKISCKASGYSFSNYYIHWVKQSHGKSLEWIGFISCYNGATFYNQKFKGKATFTVDTSSSTAYMKFNSLTFEDSAVYYCARLPIQFGNFYPMDYWGQGTSVTVSS
VL: QIVLTQSPAIMSASLGERVTMTCTASSSVSSSYLHWYQQKPGSSPKLWIYSTSNLASGVPARFSGSGSGTSYSLTISSMEAEDAATYYCHQYHRSPPTFGAGTKLELK
Consider B1, for which the “epitope on human MDR1” value in series [1] is “bind to an epitope comprising extracellular loop 1 and extracellular loop 4”.

B2: B1.225: anti-MDR1 antibody, Mouse; VH SEQ ID NO:105, VL SEQ ID NO:109 (antibody, listed as Mus musculus, V domains shown)
VH: EVQLVESGGALVKPGGSLKLSCAASGFTFSNYGMSWVRQTPEKRLEWVATISSGGSYTYYPDTVKGRFTISRDNAKNTLHLQMSSLRSEDTALYYCARRGTNDAWFGYWGQGTLVTVSA
VL: DVVMTQTPLSLPVSLGDQASISCRFSQSIVHSNGNTYLEWYLQKPGQSPKLLIYKVSNRFFGVPDRFSGSGSGTDFTLKISRVEAEDLGVYFCFQGSHVPQYTFGGGTKLEIK
B2: in series [2], the “tumor volume, single agent” value was “decreased tumor volume” and the “tumor volume, in combination with paclitaxel” value (shortened to “tumor volume, in combination”) is listed as “decreased tumor volume”.

B3: B1.236: anti-MDR1 antibody, Mouse; VH SEQ ID NO:115, VL SEQ ID NO:116 (antibody, listed as Mus musculus, V domains shown)
VH: EAQLVESGGALVKPGGSLKLSCSASGFTFSNYAMSWVRQTPEKRLEWVATISSGGTNTYYPGSVKGRFTIARDNAKNTLYLLMSSLRSEDTALYFCAKYSNLAWFASWGQGTLVTVSA
VL: QIVLTQSPLSLPVSLGDQASISCRSSQSLVHSIGNTYLEWYLQKPGQSPKFLISKVSNRFSGVPDRFSGSGSGTDFTLKISRVEAEDLGIYYCFQGSHVPYTFGGGTKLEIK
On to B3, for which, in series [1], the “epitope on human MDR1” value is “bind to an epitope comprising extracellular loop 1 and extracellular loop 4”.

B4: B1.226: anti-MDR1 antibody, Mouse; VH SEQ ID NO:112, VL SEQ ID NO:113 (antibody, listed as Mus musculus, V domains shown)
VH: EVQLVESGGALVKPGGSLKLSCAASGFTFSNYAMSWVRQTPETRLEWVATISSGGSYTYYPDSVKGRFTISRDNAKNTLYLQMSSLRSEDTALYYCARYSNLAWFAYWGQGTLVTVSA
VL: DVVMTQTPLSLPVSLGDQASISCRSSQSIVHSNGNTYLDWYLQKPGQSPKFMIYKVSNRFSGVPDRFSGSGSGTDFTLKISRVEAEDLGVYYCFQGSHVPYTFGGGTKLEIK
As to B4, in series [2], the “tumor volume, single agent” value is listed as “decreased tumor volume” and the “tumor volume, in combination” value is listed as “decreased tumor volume”.

B5: B1.188: anti-MDR1 antibody, Mouse; VH SEQ ID NO:66, VL SEQ ID NO:79 (antibody, listed as Mus musculus, V domains shown)
VH: EVMLVESGGALVKPGGSLKLSCAASGFTFSNYAMSWVRQTPEKRLEWVATISSGGSYTYYPDSVKGRFTISRDNARNTLYLQMSSLRSEDTAMYYCARGYGNFAWFAYWGQGTLVTVSA
VL: DIQMTQSPLSLPVSLGDQASISCRSSQSIVHSTGNTYLEWYLQKPGQSPKLLIYKVSNRFSGVPDRFSGSGSGTDFTLKISRVEAEDLGVYYCFQGSHVPFTFGSGTKLEIK
For B5, in series [2], the “tumor volume, single agent” value was “decreased tumor volume” and the “tumor volume, in combination” value is on record as “decreased tumor volume”.

B6: B1.198: anti-MDR1 antibody, Mouse; VH SEQ ID NO:88, VL SEQ ID NO:90 (antibody, listed as Mus musculus, V domains shown)
VH: EVQLVESGGALVKPGGSLKLSCAASGFTFSNYAMSWVRQTPEKRLEWVATISSGGSYTYYPDSVKGRFTISRDNAKNTLYLQMSSLRSEDTALYYCAKYSNYGRFAYWGQGTLVTVSA
VL: DVVMTQTPLSLPVSLGDQASISCRSSQSIVDSNGNTYLEWYLQKPGQSPKLLIYKVSNRFFGVPDRFSGSGSGTDFTLKISRVEAEDLGVYYCFQGSHVPYTFGGGTKLEIK
Turning to B6, in series [1], the “epitope on human MDR1” value was “bind to an epitope comprising extracellular loop 1 and extracellular loop 4”.

B7: B1.207: anti-MDR1 antibody, Mouse; VH SEQ ID NO:74, VL SEQ ID NO:76 (antibody, listed as Mus musculus, V domains shown)
VH: GVQLVESGGALVKPGGSLKLSCAASGFTFSNYAMSWVRQTPEKRLEWVATISSGGSYTYYPDSVKGRFTISRDNAKTTLYLQMSGLRSEDTALYYCAKYSNYGRFASWGQGTLVTVST
VL: DVLMTQTPLSLPVSLGDQASISCRSSQSIVHSSGNTYLEWYLQKPGQSPRLLIYKVSNRFFGVPDRISGSGSGTDFTLRISRVEAEDLGVYYCFQGSHVPYTFGGGTKLEIK
As for B7, the “epitope on human MDR1” value in series [1] is “bind to an epitope comprising extracellular loop 1 and extracellular loop 4”.

B8: B1.201: anti-MDR1 antibody, Mouse; VH SEQ ID NO:92, VL SEQ ID NO:95 (antibody, listed as Mus musculus, V domains shown)
VH: EVQLVESGGALMKPGGSLKFSCAASGFTFTNYAMSWVRQTPEKRLEWVATISSGGSNTYYSDSVKGRFTISRDNAKTTLYLQMSGLRSEDTALYYCAKFSNFGRFASWGQGTLVTVSA
VL: DVLMTQTPLSLPVSLGDQASISCRFSQSIVHSSGNTYLEWYLQKPGQSPRLLIYKVSNRFFGVPDRISGSGSGTDFTLRISRVEAEDLGVYYCFQGSHVPYTFGGGTKLEIK
Take B8: in series [1], the “epitope on human MDR1” value was “bind to an epitope comprising extracellular loop 1 and extracellular loop 4”.

B9: B1.219: anti-MDR1 antibody, Mouse; VH SEQ ID NO:99, VL SEQ ID NO:101 (antibody, listed as Mus musculus, V domains shown)
VH: EVQLVESGGALVKPGGSLKLSCAASGFTFSNYAMSWVRQTPEKRLEWVATISSVGSYTYYPDSVKGRFTISRDNAKTTLYLQMSGLRSEDTALYYCAKYSNYGRFASWGQGTLVTVST
VL: DVLMTQTPLSLPASLGDQASISCRSSQSIVHSSGNTYLEWYLQKPGQSPRLLIYKVSNRFFGVPDRISGSGSGTDFTLRISRVEAEDLGVYYCFQGSHVPYTFGGGTKLEIE
B9: in series [1], the “epitope on human MDR1” value is “bind to an epitope comprising extracellular loop 1 and extracellular loop 4”.

B10: B1.184: anti-MDR1 antibody, Mouse; VH SEQ ID NO:74, VL SEQ ID NO:76 (antibody, listed as Mus musculus, V domains shown)
VH: GVQLVESGGALVKPGGSLKLSCAASGFTFSNYAMSWVRQTPEKRLEWVATISSGGSYTYYPDSVKGRFTISRDNAKTTLYLQMSGLRSEDTALYYCAKYSNYGRFASWGQGTLVTVST
VL: DVLMTQTPLSLPVSLGDQASISCRSSQSIVHSSGNTYLEWYLQKPGQSPRLLIYKVSNRFFGVPDRISGSGSGTDFTLRISRVEAEDLGVYYCFQGSHVPYTFGGGTKLEIK
With B10, the “epitope on human MDR1” value in series [1] is “bind to an epitope comprising extracellular loop 1 and extracellular loop 4”.
